Test results from patent US20030180282A1, “Method of treatment of thrombotic events” (priority 2002, published 2003).

How the values were obtained:
platelets [1] = test: in vitro comparison of TNK versus t-PA on platelet activation and surface receptor expression (15 parameters); format: cell-based, human; details: TNK 12 μg/mL, t-PA 4 μg/mL, 30 minutes
Protocol: Blood samples for the in vitro study were obtained from 9 healthy volunteers. None of the subjects smoked or had hypertension, diabetes, or an abnormal hematocrit. None had received aspirin or any other antiplatelet drugs. All subjects underwent blood sampling after at least 30 minutes of rest and 2 or more hours of fasting. Blood was drawn from an antecubital vein between 8 am and 10 am in order to avoid any diurnal influence. A 21-gauge butterfly needle was used to draw blood into a tube containing 3.8% sodium citrate (1:9 volume); the first 1.5 mL of free running blood was discarded. One tube was kept as an internal control. A second tube was incubated with tenecteplase (TNK) for 30 minutes at room temperature in order to achieve a final concentration of 12 μg/mL. […]
For the platelet aggregation (PA) studies, platelet-rich plasma (PRP) was first isolated. […] Platelet counts were determined for each PRP sample with a Coulter Counter ZM (Coulter Co., Hialeah, Fla.). […] Platelet aggregation was determined by using a 4 channel Chrono-log Lumi-Aggregometer (model 560-Ca) and expressed as the maximum percentage of light transmittance change (% max) from the baseline at the end of the recording time. […] Platelet aggregability curves were recorded for 6 minutes and analyzed according to internationally established standards (see, e.g., Ruggeri, Z. M. (1994) Semin. Hemat. 31:229-239). […]

platelets [2] = test: platelet aggregation in platelet-rich plasma of AMI patients during first 24 hours after r-PA or t-PA; format: in vivo, human; details: 3, 6, 12, 24 hours; r-PA: all agonists except ristocetin
Excerpt: Twenty-three consecutive patients admitted to the emergency rooms of St. Agnes Hospital, or the Union Memorial Hospital between July and December of 1996 with a diagnosis of acute myocardial infarction were included. All patients were enrolled in the randomized trial of Reteplase (r-PA) versus accelerated Alteplase (t-PA) for the treatment of acute myocardial infarction, (GUSTO-III trial). […]
The schedule of blood drawing, sample preparation and processing were critical issues of the study design, and were monitored by an independent observer. […]
Citrate and whole blood were immediately mixed 1:9 and then centrifuged at 1200 g for 2.5 minutes in order to obtain platelet-rich plasma (PRP) which was kept at room temperature for use within 1 hour. Platelet counts were determined for each PRP sample with Coulter Counter ZM (Coulter Co., Hialeah, Fla.). […] PA was expressed as the maximum percentage of light transmittance change from the baseline using platelet-poor plasma as a reference at the end of the recording time. PA curves were recorded for 4 minutes and analyzed according to internationally established standards (see, e.g. Ruggeri, Z. M. (1994) Semin. Hemat. 31:229-239). […]

B1: t-PA: recombinant tissue plasminogen activator, thrombolytic agent (Genentech) (protein, UniProt P00750 36-562, looked up)
Tissue-type plasminogen …: SYQVICRDEKTQMIYQQHQSWLRPVLRSNRVEYCWCNSGRAQCHSVPVKSCSEPRCFNGGTCQQALYFSDFVCQCPEGFAGKCCEIDTRATCYEDQGISYRGTWSTAESGAECTNWNSSALAQKPYSGRRPDAIRLGLGNHNYCRNPDRDSKPWCYVFKAGKYSSEFCSTPACSEGNSDCYFGNGSAYRGTHSLTESGASCLPWNSMILIGKVYTAQNPSAQALGLGKHNYCRNPDGDAKPWCHVLKNRRLTWEYCDVPSCSTCGLRQYSQPQFRIKGGLFADIASHPWQAAIFAKHRRSPGERFLCGGILISSCWILSAAHCFQERFPPHHLTVILGRTYRVVPGEEEQKFEVEKYIVHKEFDDDTYDNDIALLQLKSDSSRCAQESSVVRTVCLPPADLQLPDWTECELSGYGKHEALSPFYSERLKEAHVRLYPSSRCTSQHLLNRTVTDNMLCAGDTRSGGPQANLHDACQGDSGGPLVCLNDGRMTLVGIISWGLGCGQKDVPGVYTKVTNYLDWIRDNMRP
Platelets [1]
  platelet function, 10 of 15 parameters, compared with baseline DPBS values: diminished platelet function
Platelets [2]
  platelet aggregation, change between baseline and other time points: no statistically significant differences
